Results as given in publication PMC3551606.

target: Drosophila cathepsin B (Drosophila)

Substance	CTSB activity % (residual activity on ZFR-AMC with 3 µM crammer variant, 75 nM CTSB, pH 5.0, 20°C)
crammer D6A (natural protein)	21.1%
crammer K36A (natural protein)	29%
crammer R28A (natural protein)	89%
crammer E67A (natural protein)	54.1%
crammer E24A (natural protein)	19%
crammer R29A (natural protein)	64%
crammer E8A (natural protein)	77.7%

target: Drosophila cathepsin B (Drosophila); remark: another data set of the same source

Substance	reduction of CTSB activity at 3 µM crammer variant (text's number; differs from 100 minus the table's cell)
crammer F16A (natural protein)	64%

target: Drosophila cathepsin B (Drosophila); remark: another data set of the same source

Substance	CTSB activity % (residual activity on ZFR-AMC with 3 µM crammer variant, 75 nM CTSB, pH 5.0, 20°C)
crammer W9A (natural protein)	87.8%
crammer W53A (natural protein)	85.2%
Drosophila melanogaster crammer, wild type (natural protein)	14.7%
crammer Y12A (natural protein)	63%
crammer Y20A (natural protein)	47.8%
crammer F16A (natural protein)	34.6%
crammer Y32A (natural protein)	67.6%
crammer F46A (natural protein)	41%
